Molecular target: T1, human-CD40-monomer protein (human, UniProt P25942 21-193, limits assumed)
T1 construct: Soluble monomer generated in house, used as SPR analyte; also called hCD40; hCD40-monomer
Assay: SPR, Ab captured on protein A, hCD40 monomer 500 and 50 nM, 1:1 fit; supernatant
Description: Titer analysis was performed using Biolayer Interferometry (BLI) on an Octet RED instrument (Fortebio) by capturing antibodies from supernatant using protein A sensor tips and measuring capture response with respect to a standard curve obtained using a control antibody sample. SPR data were obtained by capturing antibodies on a protein A surface and testing the binding of 500 nM and 50 nM injections of human-CD40 analyte, using a BIAcore™ T200 instrument (GE Healthcare). The kinetic data for the two concentrations of hCD40-monomer were fit to a 1:1 Langmuir model, to yield estimates of the kinetic and affinity values for these interactions, and for comparison of the different molecules.

T1 sequence (P25942 21-193 limits assumed): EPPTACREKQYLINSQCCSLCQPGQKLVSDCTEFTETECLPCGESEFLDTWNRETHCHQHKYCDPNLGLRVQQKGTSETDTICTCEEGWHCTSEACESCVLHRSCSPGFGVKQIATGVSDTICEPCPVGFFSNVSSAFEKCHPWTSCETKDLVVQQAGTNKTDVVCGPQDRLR

Binder | Kd [nM] | koff [s⁻¹] | kon [M⁻¹ s⁻¹]
Y12XX-hz14 (antibody, human IgG1, kappa, V domains shown, Humanized, IgG1-P238K; supernatant sample) VH: QVQLVQSGAEVKKPGSSVKVSCKASGYAFTSYWMHWVRQAPGQGLEWMGQINPTTGRSQYNEKFKTRVTITADKSTSTAYMELSSLRSEDTAVYYCARWGLQPFAYWGQGTLVTVSS VL: DIQMTQSPSSLSASVGDRVTITCKASQDVSTAVAWYQQKPGKAPKLLIYSASYRYTGVPSRFSGSGSGTDFTFTISSLQPEDIATYYCQQHYSTPWTFGGGTKVEIKR | 5 | 0.00083 | 170000
Y12XX-hz9 (antibody, human IgG1, kappa, V domains shown, Humanized, IgG1-P238K; supernatant sample) VH: QVQLVQSGAEVKKPGSSVKVSCKASGYAFTSYWMHWVRQAPGQGLEWMGQINPSNGRSQYNEKFKTRVTITADKSTSTAYMELSSLRSEDTAVYYCARWGLQPFAYWGQGTLVTVSS VL: DIQMTQSPSSLSASVGDRVTITCKASQDVSTAVAWYQQKPGKAPKLLIYSASYRYTGVPSRFSGSGSGTDFTFTISSLQPEDIATYYCQQHYSTPWTFGGGTKVEIKR | 4.6 | 0.00089 | 200000
Y12XX-hz4 (antibody, human IgG1, kappa, V domains shown, Humanized, IgG1-P238K; supernatant sample) VH: QVQLVQSGAEVKKPGSSVKVSCKASGYAFTSYWMHWVRQAPGQGLEWMGYINPTTGYSAYNQKFKDKATLTADKSTSTAYMELSSLRSEDTAVYYCARWDPRPFAYWGQGTLVTVSS VL: DIQMTQSPSSLSASVGDRVTITCKASQDVSTAVAWYQQKPGKAPKLLIYSASYRYTGVPSRFSGSGSGTDFTFTISSLQPEDIATYYCQQHYSTPWTFGGGTKVEIKR | 4.7 | 0.0022 | 460000
Y12XX-hz8 (antibody, human IgG1, kappa, V domains shown, Humanized, IgG1-P238K; supernatant sample) VH: QVQLVQSGAEVKKPGSSVKVSCKASGYAFTSYWMHWVRQAPGQGLEWMGYINPTTGYSAYNQKFKDKATLTADKSTSTAYMELSSLRSEDTAVYYCARWDARPFAYWGQGTLVTVSS VL: DIQMTQSPSSLSASVGDRVTITCKASQDVSTAVAWYQQKPGKAPKLLIYSASYRYTGVPSRFSGSGSGTDFTFTISSLQPEDIATYYCQQHYSTPWTFGGGTKVEIKR | 210 | 0.15 | 720000
Y12XX-hz5 (antibody, human IgG1, kappa, V domains shown, Humanized, IgG1-P238K; supernatant sample) VH: QVQLVQSGAEVKKPGSSVKVSCKASGYAFTSYWMHWVRQRPGQGLEWMGYINPTTGYSAYNQKFKDKATLTADKSTSTAYMELSSLRSEDTAVYYCARWDPRPFAYWGQGTLVTVSS VL: DIQMTQSPSSLSASVGDRVTITCKASQDVSTAVAWYQQKPGKAPKLLIYSASYRYTGVPSRFSGSGSGTDFTFTISSLQPEDIATYYCQQHYSTPWTFGGGTKVEIKR | 7.2 | 0.0025 | 350000

Results, then the binder that gave them:

Kd [nM] | koff [s⁻¹] | kon [M⁻¹ s⁻¹] | Binder
4.5 | 6.7e-05 | 15000 | Y12XX-hz3 (antibody, human IgG1, kappa, V domains shown, Humanized, IgG1-P238K; supernatant sample) VH: QVQLVQSGAEVKKPGSSVKVSCKASGYAFTSYWMHWVRQRPGQGLEWIGFINPTTGYSEYNQKFKDRVTITADKSTSTAYMELNSLRSEDTAVYYCARWGLPPFAYWGQGTLVTVSS VL: DIQMTQSPSSLSASVGDRVTITCKASQDVSTAVAWYQQKPGKAPKLLIYSASYRYTGVPSRFSGSGSGTDFTFTISSLQPEDIATYYCQQHYSTPWTFGGGTKVEIKR
4.1 | 7.1e-05 | 17000 | Y12XX-hz2 (antibody, human IgG1, kappa, V domains shown, Humanized, IgG1-P238K; supernatant sample) VH: QVQLVQSGAEVKKPGSSVKVSCKASGYAFTSYWMHWVRQRPGQGLEWMGFINPTTGYSEYNQKFKDRVTITADKSTSTAYMELSSLRSEDTAVYYCARWGLPPFAYWGQGTLVTVSS VL: DIQMTQSPSSLSASVGDRVTITCKASQDVSTAVAWYQQKPGKAPKLLIYSASYRYTGVPSRFSGSGSGTDFTFTISSLQPEDIATYYCQQHYSTPWTFGGGTKVEIKR
1.1 | 1.6e-05 | 15000 | Y12XX-hz1 (antibody, human IgG1, kappa, V domains shown, Humanized, IgG1-P238K; supernatant sample) VH: QVQLVQSGAEVKKPGSSVKVSCKASGYAFTSYWMHWVRQAPGQGLEWMGFINPTTGYSEYNQKFKDRVTITADKSTSTAYMELSSLRSEDTAVYYCARWGLPPFAYWGQGTLVTVSS VL: DIQMTQSPSSLSASVGDRVTITCKASQDVSTAVAWYQQKPGKAPKLLIYSASYRYTGVPSRFSGSGSGTDFTFTISSLQPEDIATYYCQQHYSTPWTFGGGTKVEIKR
